According to paper PMC6423188, “HYNIC and DOMA conjugated radiolabeled bombesin analogs as receptor-targeted probes for scintigraphic detection of breast tumor” (EJNMMI Research, 2019):

Columns and labels:
[1] = test system: MDA-MB-231 tumor-bearing mice; assay: In vivo biodistribution; parameters: species or system mouse; settings: mean ± SD, n = 3; for Tumor uptake: MDA-MB-231 tumor
Protocol: All animal experiments were done according to the CSIR-IICB Animal Ethics Committee’s rules and regulation. Forty-eight hours before tumor cell implantation, an immunosuppressive drug (cyclosporine-A) was given intraperitoneal (i.p) at a concentration of 30 mg/kg/day. After that, MDA-MB-231 cells (5 × 10^6) 0.2 mL were implanted subcutaneously into the left flanks of the hind leg of BALB/c mice. Thereafter, the same dose of cyclosporine was given i.p. daily up to 2 weeks. Two weeks after inoculation of the tumor cells, when tumors reached ~ 0.5 cm in mean diameter, the tumor-bearing mice were used for biodistribution and imaging studies. Animals were monitored daily and their weights were recorded. Control group of mice received only 0.9 wt% saline. After cell implantation, the growth rate of the breast tumor followed a satisfactory pattern of spheroid shape and tumors are palpable within 2 to 4 weeks. MDA-MB-231 cell implanted mice tumor models were used for biodistribution and planar imaging studies of these radiolabeled new bombesin analogs.
In tissue biodistribution studies, tumor-bearing animals were divided into four groups and well hydrated for 1 h by intraperitoneal administration of saline (0.9%, 2 mL). Three animals per groups were used for biodistribution studies. After that, the radiolabeled new bombesin analogs (^99mTc-BN) were injected intravenously in each animal of each group consequently through the tail vein [24–27]. After 5, 30, 60, and 120 min intravenous administrations of radiolabeled analogs, the animals were sacrificed; blood, heart, lung, liver, kidney, stomach, intestine, spleen, pancreas, brain, muscle, and tumor were excised, weighed, and counted for radioactivity. The organ uptake was calculated as a percentage of the injected activity per gram of wet tissue (%IA/g). In order to evaluate whether binding of bombesin analogs to MDA-MB-231 cells in vivo is specific; blocking studies with ^99mTc-labeled bombesin analogs in tumor-bearing mice were carried out. Groups of three animals were injected 0.03 nmol of ^99mTc-labeled BN analogs (2 MBq) with 25 nmol of non-radiolabeled BN peptide. After 60 min and 120 min, mice were sacrificed and the organs were collected. Each organ was weighed and counted in a gamma counter along with activity standard and percentage of injected activity per gram (%IA/g) of tissue was calculated for each type of tissues. Counts were corrected for background radiation and physical decay of the radioactivity. The uptake was expressed in the percentage of injected activity per gram of each organ (%IA/g). Data were analyzed statistically by the t test, with the level of significance set at P < 0.05.

physchem = assay type: physicochemical; settings: pH 7.4
Protocol: Lipophilicity of the HPLC-purified radiopeptide analogs was determined through octanol/water partition coefficients, determined at pH 7.4 by measuring the distribution of the HPLC purified radiolabeled peptides in 1-octanol and PBS. Then, 50 μL HPLC purified ^99mTc-BN1/^99mTc-BN2/^99mTc-BN3/^99mTc-BN4/^99mTc-BNS with 100 μCi of radiolabeled compound in PBS was added to a to a centrifuge tube containing 1 mL n-octanol and 1 mL PBS (0.025 M, pH 7.4). The tube was vortexed at room temperature for 2 min and they are centrifuged at 5000 rpm for 5 min to ensure complete separation of layers. Further, 100 μL of each phase was transferred into a separate pre-weighed vial and measured in the well γ-counter. The ratio of octanol layer counts to aqueous layer counts was expressed as the distribution coefficient (D, the appropriate descriptor for ionizable compounds) and logD was used for determination of lipophilicity. Counts per unit weight of the sample were calculated, and logD value as calculated as follows:
log10D = log10 [(cpm in octanol – cpm in background) / (cpm in buffer – cpm in background)]

in vitro = in vitro ADME; settings: rat
Protocol: An aliquot (100 μL) of ^99mTc-BN1/^99mTc-BN2/^99mTc-BN3/^99mTc-BN4/^99mTc-BNS was added to 1 mL of freshly collected rat serum in centrifuge tube. The mixture was then incubated at 37 °C for 1 h; the serum protein was precipitated by adding 1 mL trichloroacetic acid (10%, V/V). The supernatant and precipitate were separated by centrifugation at 3000 rpm for 5 min. Radioactivities of both the phases were measured separately. The above experimental procedure was repeated three times. The percentage of protein binding was determined as: Plasma protein binding % = (precipitate counts (CPM) / [precipitate counts (CPM) + plasma counts (CPM)]) × 100%.

[2] = 60 min p.i., blocked with excess non-radiolabeled BN peptide

^99mTc-HYNIC-Pro-Asp-[Tyr^13Met^14]BN(7-14)NH2 [99mTc-BN2]
Tumor uptake ([1]; 5 min p.i., i.v.): 0.79 ± 0.12 %IA/g
Blood uptake ([1]; 5 min p.i., i.v.): 1.03 ± 0.05 %IA/g
Heart uptake ([1]; 5 min p.i., i.v.): 0.59 ± 0.02 %IA/g
Intestine uptake ([1]; 5 min p.i., i.v.): 0.73 ± 0.03 %IA/g
Kidney uptake ([1]; 5 min p.i., i.v.): 2.05 ± 0.10 %IA/g
Liver uptake ([1]; 5 min p.i., i.v.): 1.47 ± 0.07 %IA/g
Lung uptake ([1]; 5 min p.i., i.v.): 0.91 ± 0.04 %IA/g
Muscle uptake ([1]; 5 min p.i., i.v.): 0.24 ± 0.01 %IA/g
Pancreas uptake ([1]; 5 min p.i., i.v.): 0.95 ± 0.01 %IA/g
Spleen uptake ([1]; 5 min p.i., i.v.): 0.95 ± 0.04 %IA/g
Stomach uptake ([1]; 5 min p.i., i.v.): 0.74 ± 0.03 %IA/g
Urine + urinary bladder uptake ([1]; 5 min p.i., i.v.): 0.56 ± 0.02 %IA/g
Tumor uptake ([1]; 30 min p.i., i.v.): 1.85 ± 0.05 %IA/g
Blood uptake ([1]; 30 min p.i., i.v.): 0.78 ± 0.03 %IA/g
Heart uptake ([1]; 30 min p.i., i.v.): 0.46 ± 0.01 %IA/g
Intestine uptake ([1]; 30 min p.i., i.v.): 1.05 ± 0.05 %IA/g
Kidney uptake ([1]; 30 min p.i., i.v.): 4.76 ± 0.20 %IA/g
Liver uptake ([1]; 30 min p.i., i.v.): 1.23 ± 0.06 %IA/g
Lung uptake ([1]; 30 min p.i., i.v.): 0.89 ± 0.11 %IA/g
Muscle uptake ([1]; 30 min p.i., i.v.): 0.20 ± 0.02 %IA/g
Pancreas uptake ([1]; 30 min p.i., i.v.): 2.07 ± 0.10 %IA/g
Spleen uptake ([1]; 30 min p.i., i.v.): 0.75 ± 0.03 %IA/g
Stomach uptake ([1]; 30 min p.i., i.v.): 1.01 ± 0.05 %IA/g
Urine + urinary bladder uptake ([1]; 30 min p.i., i.v.): 1.92 ± 0.07 %IA/g
Tumor uptake [1, 2]: 0.78 ± 0.03 %IA/g
Blood uptake [1, 2]: 0.38 ± 0.01 %IA/g
Heart uptake [1, 2]: 0.27 ± 0.02 %IA/g
Intestine uptake [1, 2]: 1.25 ± 0.02 %IA/g
Kidney uptake [1, 2]: 3.37 ± 0.10 %IA/g
Liver uptake [1, 2]: 1.09 ± 0.04 %IA/g
Lung uptake [1, 2]: 0.73 ± 0.04 %IA/g
Muscle uptake [1, 2]: 0.20 ± 0.02 %IA/g
Pancreas uptake [1, 2]: 0.85 ± 0.02 %IA/g
Spleen uptake [1, 2]: 0.45 ± 0.03 %IA/g
Stomach uptake [1, 2]: 0.70 ± 0.02 %IA/g
Urine + urinary bladder uptake [1, 2]: 4.50 ± 0.08 %IA/g
Tumor uptake ([1]; 60 min p.i., i.v.): 0.98 ± 0.04 %IA/g
Blood uptake ([1]; 60 min p.i., i.v.): 0.35 ± 0.01 %IA/g
Heart uptake ([1]; 60 min p.i., i.v.): 0.23 ± 0.12 %IA/g
Intestine uptake ([1]; 60 min p.i., i.v.): 1.46 ± 0.02 %IA/g
Kidney uptake ([1]; 60 min p.i., i.v.): 3.34 ± 0.16 %IA/g
Liver uptake ([1]; 60 min p.i., i.v.): 1.01 ± 0.05 %IA/g
Lung uptake ([1]; 60 min p.i., i.v.): 0.78 ± 0.03 %IA/g
Muscle uptake ([1]; 60 min p.i., i.v.): 0.18 ± 0.03 %IA/g
Pancreas uptake ([1]; 60 min p.i., i.v.): 1.08 ± 0.05 %IA/g
Spleen uptake ([1]; 60 min p.i., i.v.): 0.48 ± 0.02 %IA/g
Stomach uptake ([1]; 60 min p.i., i.v.): 0.82 ± 0.04 %IA/g
Urine + urinary bladder uptake ([1]; 60 min p.i., i.v.): 4.54 ± 0.22 %IA/g
Tumor uptake ([1]; 120 min p.i., i.v.): 0.54 ± 0.02 %IA/g
Blood uptake ([1]; 120 min p.i., i.v.): 0.07 ± 0.01 %IA/g
Heart uptake ([1]; 120 min p.i., i.v.): 0.12 ± 0.01 %IA/g
Intestine uptake ([1]; 120 min p.i., i.v.): 0.18 ± 0.01 %IA/g
Kidney uptake ([1]; 120 min p.i., i.v.): 2.45 ± 0.12 %IA/g
Liver uptake ([1]; 120 min p.i., i.v.): 0.53 ± 0.02 %IA/g
Lung uptake ([1]; 120 min p.i., i.v.): 0.42 ± 0.02 %IA/g
Muscle uptake ([1]; 120 min p.i., i.v.): 0.12 ± 0.04 %IA/g
Pancreas uptake ([1]; 120 min p.i., i.v.): 0.89 ± 0.04 %IA/g
Spleen uptake ([1]; 120 min p.i., i.v.): 0.24 ± 0.11 %IA/g
Stomach uptake ([1]; 120 min p.i., i.v.): 0.41 ± 0.02 %IA/g
Urine + urinary bladder uptake ([1]; 120 min p.i., i.v.): 5.55 ± 0.03 %IA/g
logD (physchem): − 1.78 ± 0.04
Percentage of plasma protein binding (in vitro): 41.23%
